We go through 41 sequences from the supplement of paper PMC7877785.

± gives the uncertainty stated by the source.

The series is described as follows: self-splicing fitness, log relative to wild type (ln ratio); higher = more splicing; Tetrahymena group I intron in knt gene, E. coli kanamycin selection, DiMSum; sequences stand for … in CUCUCU…GGAGGGAAAAGUUAUCAGGCAUGCACCUGGUAGCUAGUCUUUAAACCAAUAGAUUGCAUCGGUUUAAAAGGCAAGACCGUCAAAUUGCGGGAAAGGGGUCAACAGCCGUUCAGUACCAAGUCUCAGGGGAAACUUUGAGAUGGCCUUGCAAAGGGUAUGGUAAUAAGCUGACGGACAUGGUCCUAACCACGCAGCCAAGUCCUAAGUCAACAGAUCUUCUGUUGAUAUGGAUGCAGUUCACAGACUAAAUGUCGGUCGGGGAAGAUGUAUUCUUCUCAUAAGAUAUAGUCGGACCUCUCCUUAAUGGGAGCUAGCGGAUGAAGUGAUGCAACACUGGAGCCGCUGGGAACUAAUUUGUAUGCGAAAGUAUAUUGAUUAGUUUUGGAGUACUCGUGGUCG
A digest of the protocol:
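A randomised library covering all eight P1ex-region intron nucleotides was built with the intron in the knt kanamycin-resistance gene on pET-22b(+) and held in E. coli BL21(DE3). Cells were grown overnight at 37°C or 30°C on LB agar, with or without 25 μg/mL kanamycin, plus 100 μg/mL carbenicillin, 50 μM IPTG and 0.2% rhamnose, and pooled colonies were amplicon-sequenced on an Illumina HiSeq 2500. DiMSum fitness is the error-weighted combination of wild-type-normalised replicate fold changes, kanamycin versus none.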

Regarding GAACAGCAAUAUUACGUUCC, for the setting “30 °C”, the “self-splicing fitness (ln)” value was -2.88 ± 0.36.

CUUGAGCAAUAUUACGGGUA: the “self-splicing fitness (ln)” value by setting is: (30 °C) -3.78 ± 0.33; (37 °C) -2.53 ± 0.24.

In the case of UUGGAGCAAUAUUACGUUCU, under “37 °C”, the “self-splicing fitness (ln)” value was -3.09 ± 0.27.

On to ACACAGCAAUAUUACGCAAA, for which the “self-splicing fitness (ln)” value is -3.2 ± 0.11 (30 °C) and -1.85 ± 0.092 (37 °C).

Regarding AAAGAGCAAUAUUACGUAUC, the “self-splicing fitness (ln)” value (37 °C) was -1.57 ± 0.27.

For UUAUAGCAAUAUUACGCGAG, the “self-splicing fitness (ln)” value by setting is: (30 °C) -0.842 ± 0.11; (37 °C) -0.334 ± 0.12.

Consider CGCGAGCAAUAUUACGAGCC, for which the “self-splicing fitness (ln)” value (30 °C) was -3.49 ± 0.32 and the “self-splicing fitness (ln)” value (37 °C) was -1.4 ± 0.28.

For the sequence GAUUAGCAAUAUUACGUUUU, the “self-splicing fitness (ln)” value reads like this: (30 °C) -3.88 ± 0.28; (37 °C) -1.59 ± 0.16.

Turning to CUAUAGCAAUAUUACGGCCU, the “self-splicing fitness (ln)” value (30 °C) was -2.9 ± 0.38 and the “self-splicing fitness (ln)” value (37 °C) was -1.78 ± 0.38.

As to GCGUAGCAAUAUUACGACUU, the “self-splicing fitness (ln)” value is, setting by setting: (30 °C) -0.421 ± 0.11; (37 °C) 0.154 ± 0.15.

In the case of GUGAAGCAAUAUUACGGCUU, the “self-splicing fitness (ln)” value was -4.92 ± 0.36 (30 °C) and -3.3 ± 0.26 (37 °C).

Consider GUCCAGCAAUAUUACGGCUG, for which the “self-splicing fitness (ln)” value by setting is: (30 °C) -3.93 ± 0.31; (37 °C) -3.61 ± 0.39.

On to AGUUAGCAAUAUUACGUAGA, for which the “self-splicing fitness (ln)” value was -3.12 ± 0.14 (30 °C) and -1.59 ± 0.14 (37 °C).

In the case of CUGGAGCAAUAUUACGUCCC, where the note is “37 °C”, the “self-splicing fitness (ln)” value is -1.4 ± 0.46.

Consider UAUUAGCAAUAUUACGGGCC, for which, for the setting “30 °C”, the “self-splicing fitness (ln)” value was -2.84 ± 0.42.

Consider UGCGAGCAAUAUUACGAUUG, for which the “self-splicing fitness (ln)” value was -2.09 ± 0.1 (30 °C) and -1.35 ± 0.16 (37 °C).

For the sequence AGUUAGCAAUAUUACGUUAG, the “self-splicing fitness (ln)” value is, setting by setting: (30 °C) -3.45 ± 0.23; (37 °C) -2.72 ± 0.3.

Regarding AUCUAGCAAUAUUACGCGCG, the “self-splicing fitness (ln)” value runs as follows: (30 °C) -0.762 ± 0.095; (37 °C) -0.257 ± 0.12.

Turning to AAAGAGCAAUAUUACGCAAA, the “self-splicing fitness (ln)” value was -3.16 ± 0.43 (30 °C) and -2.75 ± 0.34 (37 °C).

Turning to AUUGAGCAAUAUUACGGCGA, the “self-splicing fitness (ln)” value (30 °C) was -1.96 ± 0.16 and the “self-splicing fitness (ln)” value (37 °C) was -0.878 ± 0.15.

For AGGUAGCAAUAUUACGAGUG, the “self-splicing fitness (ln)” value (30 °C) is -2.867 ± 0.019 and the “self-splicing fitness (ln)” value (37 °C) is -1.58 ± 0.034.

For the sequence GGCUAGCAAUAUUACGAGAA, the “self-splicing fitness (ln)” value (37 °C) was -0.208 ± 0.37.

On to UGAUAGCAAUAUUACGCAAU, for which the “self-splicing fitness (ln)” value is, setting by setting: (30 °C) -2.87 ± 0.49; (37 °C) -1.62 ± 0.36.

Regarding CUCAAGCAAUAUUACGUCAU, the “self-splicing fitness (ln)” value (30 °C) is -2.99 ± 0.14 and the “self-splicing fitness (ln)” value (37 °C) was -2.55 ± 0.14.

Take UGUUAGCAAUAUUACGGGUC: the “self-splicing fitness (ln)” value by setting is: (30 °C) -2.97 ± 0.44; (37 °C) -1.53 ± 0.3.

Regarding UGGGAGCAAUAUUACGCUCA, the “self-splicing fitness (ln)” value (37 °C) is -2.72 ± 0.28.

For GGUUAGCAAUAUUACGAAUU, the “self-splicing fitness (ln)” value reads like this: (30 °C) 0.0573 ± 0.13; (37 °C) -0.482 ± 0.16.

For ACAUAGCAAUAUUACGGUUG, the “self-splicing fitness (ln)” value is -2.29 ± 0.079 (30 °C) and -1.95 ± 0.1 (37 °C).

On to GUGUAGCAAUAUUACGAAUG, for which the “self-splicing fitness (ln)” value (37 °C) is -1.51 ± 0.25.

As to UAUUAGCAAUAUUACGGGGA, the “self-splicing fitness (ln)” value by setting is: (30 °C) -2.39 ± 0.22; (37 °C) -0.989 ± 0.18.

Turning to CCUAAGCAAUAUUACGCGGU, the “self-splicing fitness (ln)” value by setting is: (30 °C) -2.54 ± 0.13; (37 °C) -3.06 ± 0.18.

In the case of AGCCAGCAAUAUUACGACUU, the “self-splicing fitness (ln)” value by setting is: (30 °C) -1.6 ± 0.1; (37 °C) -0.895 ± 0.12.

In the case of UCGAAGCAAUAUUACGUCUC, the “self-splicing fitness (ln)” value by setting is: (30 °C) -2.49 ± 0.15; (37 °C) -2.28 ± 0.32.

Consider CCUGAGCAAUAUUACGUUAU, for which the “self-splicing fitness (ln)” value runs as follows: (30 °C) -3.15 ± 0.26; (37 °C) -1.96 ± 0.21.

As for CUAGAGCAAUAUUACGCCGG, the “self-splicing fitness (ln)” value (37 °C) is -0.534 ± 0.29.

Regarding GCGAAGCAAUAUUACGACCG, the “self-splicing fitness (ln)” value is, setting by setting: (30 °C) -1.66 ± 0.25; (37 °C) -0.671 ± 0.21.

With UCGCAGCAAUAUUACGAGUA, the “self-splicing fitness (ln)” value runs as follows: (30 °C) -2.36 ± 0.14; (37 °C) -0.752 ± 0.12.

As for AUCGAGCAAUAUUACGCGCA, the “self-splicing fitness (ln)” value (30 °C) was -1.59 ± 0.17 and the “self-splicing fitness (ln)” value (37 °C) was -0.0318 ± 0.17.

Take ACUUAGCAAUAUUACGCUAU: the “self-splicing fitness (ln)” value by setting is: (30 °C) -3.05 ± 0.24; (37 °C) -2.09 ± 0.23.

With UCCAAGCAAUAUUACGUUCC, the “self-splicing fitness (ln)” value (37 °C) was -1.57 ± 0.31.

With GACCAGCAAUAUUACGCACC, the “self-splicing fitness (ln)” value runs as follows: (30 °C) -0.0772 ± 0.089; (37 °C) -1.06 ± 0.11.
